# Test system: mutant form of α-Gal A expressed in HEK-293 cells
# Test: HEK assay (GLP HEK / Migalastat Amenability Assay): α-Gal A activity in lysates of transiently transfected HEK-293 cells incubated with or without 10 μM migalastat
# Format: cell-based, human
# Settings: for Absolute increase (% WT): 10 μM migalastat versus baseline; for Relative increase: 10 μM migalastat α-Gal A activity relative to baseline; for 10 μM migalastat α-Gal A activity (% WT): 5 days; for 10 μM migalastat α-Gal A activity (% WT) / Baseline α-Gal A activity (% WT): percentage of baseline wild-type α-Gal A activity; for 10 μM migalastat α-Gal A activity (% WT) / Baseline α-Gal A activity (% WT) / Baseline α-Gal A activity / 10 μM migalastat α-Gal A activity: mean ± SEM; for Baseline α-Gal A activity (% WT): absence of migalastat; for Baseline α-Gal A activity / 10 μM migalastat α-Gal A activity: lysates of HEK-293 cells transfected with the mutant form; for Baseline α-Gal A activity: incubated 5 days in the absence of migalastat; for 10 μM migalastat α-Gal A activity: incubated 5 days with 10 μM migalastat
# Summary of the method: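 Activity reported as 4-MU released (nmol/mg/hr), mean±SEM, from lysates of transiently transfected HEK-293 cells expressing mutant α-Gal A, cultured with or without 10 μM migalastat.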
Molecule,Absolute increase (% WT),Relative increase,10 μM migalastat α-Gal A activity (% WT),Baseline α-Gal A activity (% WT),Baseline α-Gal A activity,10 μM migalastat α-Gal A activity
A135S (protein) MQLRNPELHLGCALALRFLALVSWDIPGARALDNGLARTPTMGWLHWERFMCNLDCQEEPDSCISEKLFMEMAELMVSEGWKDAGYEYLCIDDCWMAPQRDSEGRLQADPQRFPHGIRQLANYVHSKGLKLGIYSDVGNKTCAGFPGSFGYYDIDAQTFADWGVDLLKFDGCYCDSLENLADGYKHMSLALNRTGRSIVYSCEWPLYMWPFQKPNYTEIRQYCNHWRNFADIDDSWKSIKSILDWTSFNQERIVDVAGPGGWNDPDMLVIGNFGLSWNQQVTQMALWAIMAAPLFMSNDLRHISPQAKALLQDKDVIAINQDPLGKQGYQLRQGDNFEVWERPLSGLAWAVAMINRQEIGGPRSYTIAVASLGKGVACNPACFITQLLPVKRKLGFYEWTSRLRSHINPTGTVLLQLENTMQMSLKDLL,12.2 % WT,1.3,57.9 ± 3.2 % WT,45.6 ± 2.9 % WT,16777 ± 897 nmol/mg/h,21383 ± 1125 nmol/mg/h
V137D (protein) MQLRNPELHLGCALALRFLALVSWDIPGARALDNGLARTPTMGWLHWERFMCNLDCQEEPDSCISEKLFMEMAELMVSEGWKDAGYEYLCIDDCWMAPQRDSEGRLQADPQRFPHGIRQLANYVHSKGLKLGIYADDGNKTCAGFPGSFGYYDIDAQTFADWGVDLLKFDGCYCDSLENLADGYKHMSLALNRTGRSIVYSCEWPLYMWPFQKPNYTEIRQYCNHWRNFADIDDSWKSIKSILDWTSFNQERIVDVAGPGGWNDPDMLVIGNFGLSWNQQVTQMALWAIMAAPLFMSNDLRHISPQAKALLQDKDVIAINQDPLGKQGYQLRQGDNFEVWERPLSGLAWAVAMINRQEIGGPRSYTIAVASLGKGVACNPACFITQLLPVKRKLGFYEWTSRLRSHINPTGTVLLQLENTMQMSLKDLL,11.6 % WT,9.2,13 ± 1.6 % WT,1.4 ± 0.2 % WT,516 ± 80 nmol/mg/h,4757 ± 618 nmol/mg/h
D136V (protein) MQLRNPELHLGCALALRFLALVSWDIPGARALDNGLARTPTMGWLHWERFMCNLDCQEEPDSCISEKLFMEMAELMVSEGWKDAGYEYLCIDDCWMAPQRDSEGRLQADPQRFPHGIRQLANYVHSKGLKLGIYAVVGNKTCAGFPGSFGYYDIDAQTFADWGVDLLKFDGCYCDSLENLADGYKHMSLALNRTGRSIVYSCEWPLYMWPFQKPNYTEIRQYCNHWRNFADIDDSWKSIKSILDWTSFNQERIVDVAGPGGWNDPDMLVIGNFGLSWNQQVTQMALWAIMAAPLFMSNDLRHISPQAKALLQDKDVIAINQDPLGKQGYQLRQGDNFEVWERPLSGLAWAVAMINRQEIGGPRSYTIAVASLGKGVACNPACFITQLLPVKRKLGFYEWTSRLRSHINPTGTVLLQLENTMQMSLKDLL,74.2 % WT,2.8,116.4 ± 5.5 % WT,42.2 ± 1.7 % WT,17164 ± 1203 nmol/mg/h,47647 ± 3779 nmol/mg/h
A135T (protein) MQLRNPELHLGCALALRFLALVSWDIPGARALDNGLARTPTMGWLHWERFMCNLDCQEEPDSCISEKLFMEMAELMVSEGWKDAGYEYLCIDDCWMAPQRDSEGRLQADPQRFPHGIRQLANYVHSKGLKLGIYTDVGNKTCAGFPGSFGYYDIDAQTFADWGVDLLKFDGCYCDSLENLADGYKHMSLALNRTGRSIVYSCEWPLYMWPFQKPNYTEIRQYCNHWRNFADIDDSWKSIKSILDWTSFNQERIVDVAGPGGWNDPDMLVIGNFGLSWNQQVTQMALWAIMAAPLFMSNDLRHISPQAKALLQDKDVIAINQDPLGKQGYQLRQGDNFEVWERPLSGLAWAVAMINRQEIGGPRSYTIAVASLGKGVACNPACFITQLLPVKRKLGFYEWTSRLRSHINPTGTVLLQLENTMQMSLKDLL,23.2 % WT,2.4,40.5 ± 3.4 % WT,17.4 ± 1.3 % WT,7906 ± 694 nmol/mg/h,18890 ± 2092 nmol/mg/h
D136A (protein) MQLRNPELHLGCALALRFLALVSWDIPGARALDNGLARTPTMGWLHWERFMCNLDCQEEPDSCISEKLFMEMAELMVSEGWKDAGYEYLCIDDCWMAPQRDSEGRLQADPQRFPHGIRQLANYVHSKGLKLGIYAAVGNKTCAGFPGSFGYYDIDAQTFADWGVDLLKFDGCYCDSLENLADGYKHMSLALNRTGRSIVYSCEWPLYMWPFQKPNYTEIRQYCNHWRNFADIDDSWKSIKSILDWTSFNQERIVDVAGPGGWNDPDMLVIGNFGLSWNQQVTQMALWAIMAAPLFMSNDLRHISPQAKALLQDKDVIAINQDPLGKQGYQLRQGDNFEVWERPLSGLAWAVAMINRQEIGGPRSYTIAVASLGKGVACNPACFITQLLPVKRKLGFYEWTSRLRSHINPTGTVLLQLENTMQMSLKDLL,9.4 % WT,1.5,29.8 ± 1 % WT,20.4 ± 1.1 % WT,8054 ± 482 nmol/mg/h,12166 ± 927 nmol/mg/h
V137I (protein) MQLRNPELHLGCALALRFLALVSWDIPGARALDNGLARTPTMGWLHWERFMCNLDCQEEPDSCISEKLFMEMAELMVSEGWKDAGYEYLCIDDCWMAPQRDSEGRLQADPQRFPHGIRQLANYVHSKGLKLGIYADIGNKTCAGFPGSFGYYDIDAQTFADWGVDLLKFDGCYCDSLENLADGYKHMSLALNRTGRSIVYSCEWPLYMWPFQKPNYTEIRQYCNHWRNFADIDDSWKSIKSILDWTSFNQERIVDVAGPGGWNDPDMLVIGNFGLSWNQQVTQMALWAIMAAPLFMSNDLRHISPQAKALLQDKDVIAINQDPLGKQGYQLRQGDNFEVWERPLSGLAWAVAMINRQEIGGPRSYTIAVASLGKGVACNPACFITQLLPVKRKLGFYEWTSRLRSHINPTGTVLLQLENTMQMSLKDLL,24.7 % WT,1.8,57.4 ± 2.5 % WT,32.8 ± 1.6 % WT,12148 ± 597 nmol/mg/h,21313 ± 987 nmol/mg/h
V137A (protein) MQLRNPELHLGCALALRFLALVSWDIPGARALDNGLARTPTMGWLHWERFMCNLDCQEEPDSCISEKLFMEMAELMVSEGWKDAGYEYLCIDDCWMAPQRDSEGRLQADPQRFPHGIRQLANYVHSKGLKLGIYADAGNKTCAGFPGSFGYYDIDAQTFADWGVDLLKFDGCYCDSLENLADGYKHMSLALNRTGRSIVYSCEWPLYMWPFQKPNYTEIRQYCNHWRNFADIDDSWKSIKSILDWTSFNQERIVDVAGPGGWNDPDMLVIGNFGLSWNQQVTQMALWAIMAAPLFMSNDLRHISPQAKALLQDKDVIAINQDPLGKQGYQLRQGDNFEVWERPLSGLAWAVAMINRQEIGGPRSYTIAVASLGKGVACNPACFITQLLPVKRKLGFYEWTSRLRSHINPTGTVLLQLENTMQMSLKDLL,45.4 % WT,1.8,106.6 ± 5.9 % WT,61.1 ± 4.6 % WT,22393 ± 1429 nmol/mg/h,40016 ± 2785 nmol/mg/h
V137G (protein) MQLRNPELHLGCALALRFLALVSWDIPGARALDNGLARTPTMGWLHWERFMCNLDCQEEPDSCISEKLFMEMAELMVSEGWKDAGYEYLCIDDCWMAPQRDSEGRLQADPQRFPHGIRQLANYVHSKGLKLGIYADGGNKTCAGFPGSFGYYDIDAQTFADWGVDLLKFDGCYCDSLENLADGYKHMSLALNRTGRSIVYSCEWPLYMWPFQKPNYTEIRQYCNHWRNFADIDDSWKSIKSILDWTSFNQERIVDVAGPGGWNDPDMLVIGNFGLSWNQQVTQMALWAIMAAPLFMSNDLRHISPQAKALLQDKDVIAINQDPLGKQGYQLRQGDNFEVWERPLSGLAWAVAMINRQEIGGPRSYTIAVASLGKGVACNPACFITQLLPVKRKLGFYEWTSRLRSHINPTGTVLLQLENTMQMSLKDLL,52.4 % WT,2.2,98.2 ± 5 % WT,45.9 ± 4.2 % WT,16515 ± 1170 nmol/mg/h,36258 ± 1701 nmol/mg/h
D136N (protein) MQLRNPELHLGCALALRFLALVSWDIPGARALDNGLARTPTMGWLHWERFMCNLDCQEEPDSCISEKLFMEMAELMVSEGWKDAGYEYLCIDDCWMAPQRDSEGRLQADPQRFPHGIRQLANYVHSKGLKLGIYANVGNKTCAGFPGSFGYYDIDAQTFADWGVDLLKFDGCYCDSLENLADGYKHMSLALNRTGRSIVYSCEWPLYMWPFQKPNYTEIRQYCNHWRNFADIDDSWKSIKSILDWTSFNQERIVDVAGPGGWNDPDMLVIGNFGLSWNQQVTQMALWAIMAAPLFMSNDLRHISPQAKALLQDKDVIAINQDPLGKQGYQLRQGDNFEVWERPLSGLAWAVAMINRQEIGGPRSYTIAVASLGKGVACNPACFITQLLPVKRKLGFYEWTSRLRSHINPTGTVLLQLENTMQMSLKDLL,11.2 % WT,1.9,24.2 ± 0.9 % WT,13 ± 0.8 % WT,5079 ± 248 nmol/mg/h,9827 ± 630 nmol/mg/h

# From patent publication US11833164B2, “Methods of treating Fabry disease in patients having a mutation in the GLA gene” (Amicus Therapeutics, Inc., priority 2019, dated 2023)
